According to the supplement of paper PMC9170038:

System: MS2 coat protein
Assay: apparent KD of MS2 coat protein; designed switch direction (-1 OFF switch, 1 ON switch): -1; higher = weaker reporter binding
Summary of the method: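 Each step of the titration lasted 0.8–1.5 h at the lowest concentration and 10–20 min at the highest. The protein, SNAP-549-labelled MS2 coat protein, went from 0.7 or 1.5 nM doubling to 3 µM over RNA switches transcribed on Illumina chips by stalled E. coli RNA polymerase. Normalised cluster fluorescence was curve-fitted, and the per-design median over clusters is given as apparent KD.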

[1] = Eterna round: R95, input ligand: FMN 200 uM
[2] = Eterna round: R95, input ligand: microRNA oligo, concentration not stated
[3] = Eterna round: R95, input ligand: none
[4] = input ligand: microRNA oligo, concentration not stated

Sequence	apparent KD of MS2 coat protein [1]	apparent KD of MS2 coat protein [2]	apparent KD of MS2 coat protein [3]	apparent KD of MS2 coat protein (input ligand: FMN 200 uM)	apparent KD of MS2 coat protein [4]	apparent KD of MS2 coat protein (input ligand: none)
GCAGGAUAAGUGAGGAUAUACCUAUGGAUACAUAGGUAGAAGGCACAUGAGGAUCACCCAUGUUACUCGCCUGC [Fiskers BMX 4 - 75] (puzzle: Brourd's mod of Exclusion 4)	41.7 nM	12.9 nM	10.9 nM	–	–	–
UUCAUGUGAGGAUAUGUGUACUGCUUUCUGUUUAGAUGUACACAGAAGGCACAUGAGGAUCACCCAUGUAGUAC [Ex4 - 3 - 31] (puzzle: Exclusion 4)	–	33.8 nM	–	–	–	–
ACAUGUAUUGCAGGAUAUGGGACACAUGAGGAUCACCCAUGUGACCAUAUGUAAUGCCACGGGUCUCAGAAGGGUAUGUACAUG [Ex NG2 #44] (Eterna round: R96, puzzle: Exclusion NG 2)	–	–	–	12.8 nM	10.3 nM	14.1 nM
CAUGGGUGUGAGCCGCAUUACAUGAGGAUCACCCAUGUCAACAAGCUUUUUGCUUGUCUUACGCGGCGGCACCAAAA [Bimaus] (puzzle: Sensor v3, turn-off variant 1)	17.4 nM	9.65 nM	14.9 nM	–	–	–
ACAACAAGCUUUUUGUUCGUAGAACAUGAUGCUCUAGUCACAUGAGGAUCACCCAUGUCAACCAGAUAGAUAGUUGA [JR_SV3TOV2_Sub063] (puzzle: Sensor v3, turn-off variant 2)	53.1 nM	143 nM	50.4 nM	–	–	–
AGCUGUGGCCGAGGAUAUACACAUGAGGAUCACCCAUGUAGGCGCGGAUACGCGCUAAAAUAAUUGUAGAAGGCGGUCUCAGCA [Eli eng2 - 054] (Eterna round: R96, puzzle: Exclusion NG 2)	–	–	–	3.88 nM	5.92 nM	10.6 nM
GUCUUCAUGACAUGAGGAUCACCCAUGUGUUAUAUGUUAACUAAGGAUAUAUUUUUAAUGUUGAGAUAGAAGGUAGUUUCGGUC [JR_ExcNG3_Sub091] (Eterna round: R96, puzzle: Exclusion NG 3)	–	–	–	120 nM	95.8 nM	131 nM
AACGUGUGAGGAUAUGCCGUGCCCUUCCGGAAGGAGCGGGUGCAGAAGGCACAUGAGGAUCACCCAUGUCGGCA [Excls4-V] (puzzle: Exclusion 4)	–	31.4 nM	–	–	–	–
GGUACUAACACGAAAGUGUUAGUACUAUAAGCUUGUGUUACAUGAGGAUCACCCAUGUCCUCAUAAGCUCGUCUUAU [JL-sv3-2.16 mat747 mod] (puzzle: Sensor v3, turn-off variant 2)	86.7 nM	19.6 nM	108 nM	–	–	–
UCGUUUUUUGAGGAUAUGCGACGUUCCUUCGUCGUAGAAGGCGAUACAUGAGGAUCACCCAUGUUUAUGGGCAU [LRO-Ex6-16] (puzzle: Exclusion 6)	–	109 nM	–	–	–	–
UAACUACAUGAGGAUCACCCAUGUCAGGAUAUGCCGUUAAAUUAACAUCAACAUACGGGUAGAAGGGACAGCGU [1st #4] (Eterna round: R97, puzzle: Exclusion 1)	–	–	–	30 nM	–	29.2 nM
AUUAAAUAAGGAUAUACAUGAGGAUCACCCAUGUGUAGCAAGGUGUUGCGAUCCGCAAGUAGAAGGUGUAUAAU [Eternabot (L2) Solution 2] (Eterna round: R97, puzzle: Exclusion 3)	–	–	–	49.6 nM	–	32 nM
GAUUAUGCGAGCUUUAGGGACAUGAGGAUCACCCAUGUUCGUCUUAUUAAUCUGGGUGCGCUAACAUACCUAAAUCU [JMF 52] (puzzle: Sensor v3, turn-off variant 1)	56 nM	113 nM	87.4 nM	–	–	–
AAAUUAAGUGUGAGGAUAUGCUGGUCCAUAGAUCAGCAGAAGGCACAUGAGGAUCACCCAUGUAAUAUAUUUAA [Mat - Exclusion 4 - JL Mod - D51] (puzzle: Brourd's mod of Exclusion 4)	134 nM	29.4 nM	23 nM	–	–	–
ACAUGAGGAUCACCCAUGUCCGGCUGGUCUGUUUCGGCUGUCGAGGAUAUAGUUCGGUGUUCGCGCUAGAAGGUGGGAGCUGGC [Aenatbe mod 58] (Eterna round: R96, puzzle: Exclusion NG 3)	–	–	–	160 nM	106 nM	134 nM
AAGAUGUUAGGAUAUCGAAGGUUGUGGCAGGCGGGAAUUUGCGAGAAGGAACAUGAGGAUCACCCAUGUGAAAU [JR_Exclu4_Sub043] (puzzle: Exclusion 4)	–	19.7 nM	–	–	–	–
GAGUGCUGAGGAUAUACAUGAGGAUCACCCAUGUGCUUCAGCUAGGAGACUAGCAUUGGUAGAAGGUAGUACUC [Mod of lroppy 4 - Jieux - Exclusion 3] (Eterna round: R97, puzzle: Exclusion 3)	–	–	–	19.9 nM	–	13.2 nM

Sequence	apparent KD of MS2 coat protein [1]	apparent KD of MS2 coat protein [2]	apparent KD of MS2 coat protein [3]	apparent KD of MS2 coat protein (input ligand: FMN 200 uM)	apparent KD of MS2 coat protein [4]	apparent KD of MS2 coat protein (input ligand: none)
AUGUGCACGCUGCGGUCCUACAUGAGGAUCACCCAUGUGGUCUGGUGGCGUGGGUCACCGGACUUGGCUCGUCUUGU [salish99_S_TOV1_R5_056] (Eterna round: R97, puzzle: Sensor, turn-off variant 1)	–	–	–	33.7 nM	–	40.1 nM
UUCACGUCAGGAUAUCCAUAUUUCUGAUAUAACGGUACUUUGGAGAAGGGACAUGAGGAUCACCCAUGUCCUCU [LRO-Excl4-19-Nando 22 Mod] (Eterna round: R97, puzzle: Exclusion 4)	–	–	–	15.5 nM	–	16.9 nM
UUUUUUUUGCGAGGAUAUGCAUUUAGUUAGUUAGCAGAAGGCGCGUUUCUAUACUCCUCUUCUUACAUGAGGAUCACCCAUGUU [JR_ExcNG1_Sub033] (Eterna round: R96, puzzle: Exclusion NG 1)	–	–	–	69.9 nM	34.5 nM	35.1 nM
UGUGUGUGACAGGAUAUGCAGGUAAUGAGACGGGUAGAAGGGUCUACAUGAGGAUCACCCAUGUGGCCGGUUGG [Ex6 #62] (Eterna round: R97, puzzle: Exclusion 6)	–	–	–	17.7 nM	–	16.4 nM
GCGGACUGGAUCGUGAGAUCCGAGACAUGAGGAUCACCCAUGUAGGAUAUCGAUUGCUUUGCAGUCGAGAAGGGCGUGGUCCGC [JL denovo 16] (Eterna round: R96, puzzle: Exclusion NG 3)	–	–	–	54.6 nM	44.9 nM	59.3 nM
GUUCUGACAGGAUAUACAUGAGGAUCACCCAUGUGCCCUUAGAGAUGCAAAGCAUCUCGUAGAAGGGUCUGAAC [Omei Ex3 Model Bachelor's Dilema v28] (Eterna round: R97, puzzle: Exclusion 3)	–	–	–	38.5 nM	–	31.6 nM
UUUUUUGUUGUGAGGAUAUCGUAGUUAUUUUGUUACGAGAAGGCACAUGAGGAUCACCCAUGUUUUUUGAUGUU [JR_BMOE4_Sub064] (puzzle: Brourd's mod of Exclusion 4)	–	25.4 nM	–	–	–	–
GUGUAGUUAGGAUAUGCUGGAAUCUAGCGAAGCUAGGUUCCACAUGAGGAUCACCCAUGUAGAAGGGACUACAC [Dot plot directed A v10] (puzzle: Exclusion 2)	–	168 nM	–	–	–	–
CAAUAUUAUCGAGGAUAUCCUAUUGUAUUUCUGGGAGAAGGCGGACUCAACAUGAGGAUCACCCAUGUAAGACGGGUACUAGAU [Ex NG1 #20] (Eterna round: R96, puzzle: Exclusion NG 1)	–	–	–	119 nM	81 nM	98.5 nM
GCCGAAAAUGUGAGGAUAUACCUAUGGAAACAUAGGUAGAAGGCACAUGAGGAUCACCCAUGUCCAAUAACGGC [Mat - Exclusion 4 - Eli Mod - D25] (Eterna round: R97, puzzle: Brourd's mod of Exclusion 4)	–	–	–	664 nM	–	287 nM
AACAUGUGAGGAUAUUUAAGAAAAGAAAAGAAAGAAAAGAAAAAGAAGGCACAUGAGGAUCACCCAUGUAAGAA [EteRNA is fun!] (Eterna round: R96, puzzle: Exclusion 4)	–	–	–	–	19 nM	–
CUAGAUCUUCGGAUCUAGUACAUGAGGAUCACCCAUGUGACGAGUAUAUCCUCAAACAAGCUUUUUGCUCGUCUUAU [Sensor v3 - Turn-off variant 1 - 21] (puzzle: Sensor v3, turn-off variant 1)	243 nM	237 nM	172 nM	–	–	–
UUAUUGUGAGGAUAUCAGGUGUGCUAGCGUACUGGUACAUCUGAGAAGGCACAUGAGGAUCACCCAUGUUUCUU [JL-ex4-3.22 Brourd mod] (puzzle: Exclusion 4)	–	21.1 nM	–	–	–	–
GGAAUGAGAGAGGAUAUGGGAGGGAGGACCGGACCAGAAGGCUCGACAUGAGGAUCACCCAUGUAGAGAUCCUC [AK-MS2ROC-r4-exclusion6-6.10] (Eterna round: R97, puzzle: Exclusion 6)	–	–	–	260 nM	–	75.7 nM
UGACAGCUAGGAUAUGGGCGUGCUUACAUGAGGAUCACCCAUGUGGUAUCUGAGUAGCACCCAGAAGGAGCCCGCG [Eternabot (L2) Solution 87] (Eterna round: R97, puzzle: Exclusion 5)	–	–	–	1350 nM	–	656 nM
AAGAAUCGCAAUACGAAUAAGCAAUACGAACAAUAGCAAACAUGAGGAUCACCCAUGUCAAGGGUGACAACGCUCUA [JR_Sensorv2_tov2_Sub107] (Eterna round: R96, puzzle: Sensor v2, turn-off variant 2)	–	–	–	173 nM	61.2 nM	862 nM
CCUCCACAUGAGGAUCACCCAUGUCAGGAUAUCGUGUGCGCGUUUUCGGUCUUUCGUGCGAGAAGGGACGUCUG (puzzle: Exclusion 1)	–	32.6 nM	–	–	–	–
